For one molecule, koff, kon and Kd results are on record in patent US20260250378A1.

Broadly, the koff is the first-order rate constant of dissociation. The kon is a measure of how fast the partners come together. Low values mean slow association, high ones fast association. The term Kd denotes the concentration at which binding is half-saturated.

The target in experiment [1] is T1, purified fragment of human CNX containing Amino acids 1-481 fused to human FC region (FC-CNX) (human) (UniProt P27824).
T1 sequence (looked up): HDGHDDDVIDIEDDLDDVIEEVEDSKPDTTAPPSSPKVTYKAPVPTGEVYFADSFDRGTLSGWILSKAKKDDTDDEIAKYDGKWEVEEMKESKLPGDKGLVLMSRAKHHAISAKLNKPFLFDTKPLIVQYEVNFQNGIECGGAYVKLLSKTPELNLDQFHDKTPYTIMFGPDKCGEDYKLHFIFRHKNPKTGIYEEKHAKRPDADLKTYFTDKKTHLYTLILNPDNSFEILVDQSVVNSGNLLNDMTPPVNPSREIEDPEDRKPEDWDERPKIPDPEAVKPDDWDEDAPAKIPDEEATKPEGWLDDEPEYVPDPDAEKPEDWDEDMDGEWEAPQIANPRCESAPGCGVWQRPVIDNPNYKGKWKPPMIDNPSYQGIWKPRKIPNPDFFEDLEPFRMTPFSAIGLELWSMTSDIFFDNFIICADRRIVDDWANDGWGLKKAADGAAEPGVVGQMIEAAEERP
Briefly: BLI (Octet), scFv on penta-His sensor, FC-CNX 90, 30, 10, 3.3 nM. (In BLI a coated tip is dipped into the sample, and binding shifts an interference pattern.)

In experiment [2] the target is T1, purified fragment of human CNX containing Amino acids 1-481 fused to human FC region (FC-CNX) (human). Put plainly: BLI (Octet), scFv on penta-His sensor, FC-CNX 90, 30, 10, 3.3 nM; printed without the letter E.
For experiment [3] the target is unchanged. Put plainly: BLI (Octet), scFv on penta-His sensor, FC-CNX 90, 30, 10, 3.3 nM; same value in the inset box of the Fitting View (Full X^2 0.108, Full R^2 0.9955).

B1: scFv clone 8 (C008) (scFv, part only; not given: His and myc tags, phage protein, not shown: another chain or arm of the molecule; large carriers; small tags and cut ends)
scFv: QVQLVQSGGGVVQPGRSLRLSCAASGFTVSSNYMSWVRQAPGKGLEWVSVIYSGGSTYYADSVKGRFTISRDNSKNTLYLQMNSLRAEDTAVYYCARGSRAVAGAFDYWGQGTLVTVSSGGGGSGGGGSGGGGSYSELTQDPAVSVALGQTVRITCQGDSLRTYYANWYQQKPGQAPVLVMYAKNHRPSGIPDRFSGSSSGNTASLTITGAQAEDEADYYCGSRDSSGNHPVFGGGTKVTVL
Regarding B1, the koff in experiment [1] worked out at 0.000149 s⁻¹. Besides, in experiment [2], the kon worked out at 1.14e+06 M⁻¹ s⁻¹. In experiment [3], this molecule had a Kd of 0.131 nM.
